Data on two substances can be found in patent US20150299277A1, “AGENT FOR TREATING OR PREVENTING SYSTEMIC INFLAMMATORY RESPONSE SYNDROME” (THE UNIVERSITY OF TOKYO, priority 2012, published 2015).

For data set [1], the system named is Calf Thymus Histones on HUVEC. The data set is described as follows: Cytotoxic assay: suppression of histone cytotoxicity on HUVEC. The format is cell-based, human. How it is done: After culturing for 1 hr in a medium concurrently containing 100 μg/mL Calf Thymus Histones and APC (200 nM), PTX3 (40 μg/mL), CRP (40 μg/mL) or SAP (40 μg/mL), the level of toxic activity was measured by FACS.
(§1) Normal human umbilical vein endothelial cells (HUVECs) were cultured in EGM2 medium (Clonetics). The cells after culture were washed with PBS, added with Opti-MEM medium containing an product of incubation of activated protein C (APC), PTX3, C reactive protein (CRP) or Serum amyloid P component (SAP) with histone for 1 hr, and the cells were further cultured for 1 hr. Propidium iodide (PI) was added to the medium after culture at a final concentration of 10 μg/mL, and the cells were stained for 10 min. The cells were washed with PBS, detached and analyzed by flow cytometry.
The histone cytotoxicity on HUVEC was evaluated by propidium iodide (PI) staining.
Lastly, capacity of suppressing the cytotoxic activity of histone was confirmed. Since this experiment requires a certain amount of protein and an endotoxin-elimination as treatment, a protein was expressed and purified at a 500 mL culture scale, and subjected to an endotoxin-elimination treatment (FIG. 18). In the case of PTX3 N-terminal domain, about 10 mg was obtained at a 500 mL culture scale, and a loss by the endotoxin-elimination treatment was scarcely observed. […] A capacity of fragment proteins obtained at a 500 mL scale on HUVEC to suppress histone cytotoxicity was studied. […] In consideration of the experiments relating to the binding and aggregation, all fragments were considered to possibly have a certain level of suppressive capacity.

The test system of the next data set is histone H4 on HUVEC. Described as above. It counts as cell-based, human. Here is the method:
as §1
Using each recombinant histone instead of Calf Thymus Histones, a suppressive effect of full-length PTX3 or the N-terminal domain of PTX3 on histone cytotoxicity was studied in the same manner.
Lastly, capacity of suppressing the cytotoxic activity of histone was confirmed. Since this experiment requires a certain amount of protein and an endotoxin-elimination as treatment, a protein was expressed and purified at a 500 mL culture scale, and subjected to an endotoxin-elimination treatment (FIG. 18). In the case of PTX3 N-terminal domain, about 10 mg was obtained at a 500 mL culture scale, and a loss by the endotoxin-elimination treatment was scarcely observed. […] A capacity of fragment proteins obtained at a 500 mL scale on HUVEC to suppress histone cytotoxicity was studied. […]

Another data set concerns Calf Thymus Histones. In words: Aggregation with histone, absorbance at 310 nm. It counts as binding. As to conditions: mixture with Calf Thymus Histones. How it is done: The lower left figure and the lower right figure show the measurement results of absorbance at 310 nm of a mixture of a wild-type or oligomer formation capacity-deficient mutant of PTX3 N-terminal domain having each concentration and 0.1 mg/mL Calf Thymus Histones at 1:1 vol.
The aggregation activity of PTX3 and other pentraxins to histone was evaluated. Calf Thymus Histones (50 μg/mL) were mixed with a PTX3 fragment or the other pentraxin at each concentration, and the absorbance at the wavelength of 310 nm was measured. Before mixing, samples were dialyzed against 4 mM CaCl2-containing TBS.

Entries after “also recorded” stand apart in the source; their conditions may differ. Ends that are not written are not given here.

“PTXN18: E. coli-expressed fragment of about 50 amino acids of PTX3 N-terminal domain with His-tag and TEV sequence, probably amino acids 18-67 (ENLYFQGENSDDYDLMYVNLDNEIDNGLHPTEDPTPCDCGQEHSEWDKLFIMLENSQ; not fully specified; cysteine pairing not given here)”: the “capacity to suppress cytotoxicity of bovine thymus-derived histone on HUVEC” value in data set [1] is reported as “almost equivalent to that of the PTX3 N-terminal domain”. For the same substance, in the data set with histone H4 on HUVEC, the “capacity to suppress cytotoxicity of recombinant histone H4 on HUVEC” value is “almost equivalent to that of the PTX3 N-terminal domain”.
On to “SAP: Serum amyloid P component, short pentraxin used as comparator [reference compound]”, for which, in data set [1] (100 μg/mL Calf Thymus Histones, 40 μg/mL protein, 1 hr, PI staining, FACS), the “suppression of toxic activity of Calf Thymus Histones on HUVEC” value is recorded as “do not have such suppressive effect”. Besides, the “aggregation with Calf Thymus Histones, absorbance at 310 nm” value in the data set on Calf Thymus Histones is recorded as “no aggregation capacity; also recorded: scarcely showed an aggregation activity”.
